Data as given in patent publication US20250236653A1 (published 2025).
Read-outs that look alike come from different tables or passages of the source.

T1: human OX40 (human, UniProt P43489 29-277)
T1 chain: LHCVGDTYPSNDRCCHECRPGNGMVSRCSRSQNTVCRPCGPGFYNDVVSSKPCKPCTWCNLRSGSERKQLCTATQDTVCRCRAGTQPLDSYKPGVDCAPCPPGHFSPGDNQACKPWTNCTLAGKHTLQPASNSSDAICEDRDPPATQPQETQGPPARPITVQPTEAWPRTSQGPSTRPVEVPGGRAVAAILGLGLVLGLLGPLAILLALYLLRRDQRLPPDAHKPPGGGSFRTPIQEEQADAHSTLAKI


Columns and labels:
human OX40 [1] = target: T1, human OX40; assay: flow cytometry
human OX40 [2] = target: T1, human OX40; assay: flow cytometry

Row | Binder | EC50 (human OX40 [1]) | EC50 (human OX40 [2])
1 | mono-mut23-20E5_V6 (Fc fusion) IWELKKDVYVVELDWYPDAPGEMVVLTCDTPEEDGITWTLDQSSEVLGSGKTLTIQVKEFGDAGQYTCHKGGEVLSHSLLLLHKKEDGIWSTDILKDQKEPKNKTFLRCEAKNYSGRFTCWWLTTISTDLTFSVKSSRGSSDPQGVTCGAATLSAERVRGDNKEYEYSVECQEDSACPAAEESLPIEVMVDAVHKLKYENYTSSFFIRDIIKPDPPKNLQLKPLKNSRQVEVSWEYPDTWSTPHSYFSLTFSVQVQGKSKREKKDRVFTDKTSATVICRKNASISVRAQDRYYSSSWSEWASVPCSGGGGSGGGGSGGGGSGGGGSGGGGSRNLPVATPDPGMFPCLHHSQNLLRAVSNMLQKARQTLEFSPCTSEEIDHEDITKDKTSTVEACLPLELTKNESCLNSRETSFITNGSCLASRKTSFMMALCLSSIYEDLKMYQVEFKTMNAKLLMDPKRQIFLDQNMLAVIDELMQALNFNSETVPQKSSLEEPDFYKTAIKLCILLHAFRIRAVTIDRVMSYLNASGGGGSGGGGSEPKSSDKTHTCPPCPAPEFEGGPSVFLFPPKPKDTLMISRTPEVTCVVVDVSHEDPEVKFNWYVDGVEVHNAKTKPREEQYNSTYRVVSVLTVLHQDWLNGKEYKCKVSNKALPASIEKTISKAKGQPREPQVCTLPPSRDELTKNQVSLSCAVKGFYPSDIAVEWESNGQPENNYKTTPPVLDSDGSFFLVSKLTVDKSRWQQGNVFSCSVMHEALHNHYTQKSLSLSPG heavy: QVQLVQSGAEVKKPGASVKVSCKASGYTFTSYVMHWVRQAPGQRLEWIGYINPYNDATKYNEKFKGRATLTSDKSASTAYMELSSLRSEDTAVYYCANYYGSSLSMDYWGQGTLVTVSSASTKGPSVFPLAPSSKSTSGGTAALGCLVKDYFPEPVTVSWNSGALTSGVHTFPAVLQSSGLYSLSSVVTVPSSSLGTQTYICNVNHKPSNTKVDKKVEPKSCDKTHTCPPCPAPEFEGGPSVFLFPPKPKDTLMISRTPEVTCVVVDVSHEDPEVKFNWYVDGVEVHNAKTKPREEQYNSTYRVVSVLTVLHQDWLNGKEYKCKVSNKALPASIEKTISKAKGQPREPQVYTLPPCRDELTKNQVSLWCLVKGFYPSDIAVEWESNGQPENNYKTTPPVLDSDGSFFLYSKLTVDKSRWQQGNVFSCSVMHEALHNHYTQKSLSLSPG light: not shown | 538 nM | 
2 | mono-mut23-12H3_V4 (Fc fusion) IWELKKDVYVVELDWYPDAPGEMVVLTCDTPEEDGITWTLDQSSEVLGSGKTLTIQVKEFGDAGQYTCHKGGEVLSHSLLLLHKKEDGIWSTDILKDQKEPKNKTFLRCEAKNYSGRFTCWWLTTISTDLTFSVKSSRGSSDPQGVTCGAATLSAERVRGDNKEYEYSVECQEDSACPAAEESLPIEVMVDAVHKLKYENYTSSFFIRDIIKPDPPKNLQLKPLKNSRQVEVSWEYPDTWSTPHSYFSLTFSVQVQGKSKREKKDRVFTDKTSATVICRKNASISVRAQDRYYSSSWSEWASVPCSGGGGSGGGGSGGGGSGGGGSGGGGSRNLPVATPDPGMFPCLHHSQNLLRAVSNMLQKARQTLEFSPCTSEEIDHEDITKDKTSTVEACLPLELTKNESCLNSRETSFITNGSCLASRKTSFMMALCLSSIYEDLKMYQVEFKTMNAKLLMDPKRQIFLDQNMLAVIDELMQALNFNSETVPQKSSLEEPDFYKTAIKLCILLHAFRIRAVTIDRVMSYLNASGGGGSGGGGSEPKSSDKTHTCPPCPAPEFEGGPSVFLFPPKPKDTLMISRTPEVTCVVVDVSHEDPEVKFNWYVDGVEVHNAKTKPREEQYNSTYRVVSVLTVLHQDWLNGKEYKCKVSNKALPASIEKTISKAKGQPREPQVCTLPPSRDELTKNQVSLSCAVKGFYPSDIAVEWESNGQPENNYKTTPPVLDSDGSFFLVSKLTVDKSRWQQGNVFSCSVMHEALHNHYTQKSLSLSPG heavy: QVQLVQSGAEVKKPGSSVKVSCKASGYTFKDYTMHWVRQAPGQGLEWIGGIYPNAGGSTYNQNFKDRVTLTADKSTSTAYMELSSLRSEDTAVYYCARMGYHGPHLDFDVWGQGTTVTVSSASTKGPSVFPLAPSSKSTSGGTAALGCLVKDYFPEPVTVSWNSGALTSGVHTFPAVLQSSGLYSLSSVVTVPSSSLGTQTYICNVNHKPSNTKVDKKVEPKSCDKTHTCPPCPAPEFEGGPSVFLFPPKPKDTLMISRTPEVTCVVVDVSHEDPEVKFNWYVDGVEVHNAKTKPREEQYNSTYRVVSVLTVLHQDWLNGKEYKCKVSNKALPASIEKTISKAKGQPREPQVYTLPPCRDELTKNQVSLWCLVKGFYPSDIAVEWESNGQPENNYKTTPPVLDSDGSFFLYSKLTVDKSRWQQGNVFSCSVMHEALHNHYTQKSLSLSPG light: DIQMTQSPSSLSASVGDRVTITCKASQDVGAAVAWYQQKPGKAPKLLIYWASTRHTGVPSRFSGSGSGTDFTLTISSLQPEDFATYYCQQYINYPLTFGGGTKVEIKRTVAAPSVFIFPPSDEQLKSGTASVVCLLNNFYPREAKVQWKVDNALQSGNSQESVTEQDSKDSTYSLSSTLTLSKADYEKHKVYACEVTHQGLSSPVTKSFNRGEC |  | 1880 nM

Other lines, results leading:

Row | EC50 (human OX40 [1]) | EC50 (human OX40 [2]) | Binder
3 | 73 nM |  | mono-mut23-20E5_V5 (Fc fusion) IWELKKDVYVVELDWYPDAPGEMVVLTCDTPEEDGITWTLDQSSEVLGSGKTLTIQVKEFGDAGQYTCHKGGEVLSHSLLLLHKKEDGIWSTDILKDQKEPKNKTFLRCEAKNYSGRFTCWWLTTISTDLTFSVKSSRGSSDPQGVTCGAATLSAERVRGDNKEYEYSVECQEDSACPAAEESLPIEVMVDAVHKLKYENYTSSFFIRDIIKPDPPKNLQLKPLKNSRQVEVSWEYPDTWSTPHSYFSLTFSVQVQGKSKREKKDRVFTDKTSATVICRKNASISVRAQDRYYSSSWSEWASVPCSGGGGSGGGGSGGGGSGGGGSGGGGSRNLPVATPDPGMFPCLHHSQNLLRAVSNMLQKARQTLEFSPCTSEEIDHEDITKDKTSTVEACLPLELTKNESCLNSRETSFITNGSCLASRKTSFMMALCLSSIYEDLKMYQVEFKTMNAKLLMDPKRQIFLDQNMLAVIDELMQALNFNSETVPQKSSLEEPDFYKTAIKLCILLHAFRIRAVTIDRVMSYLNASGGGGSGGGGSEPKSSDKTHTCPPCPAPEFEGGPSVFLFPPKPKDTLMISRTPEVTCVVVDVSHEDPEVKFNWYVDGVEVHNAKTKPREEQYNSTYRVVSVLTVLHQDWLNGKEYKCKVSNKALPASIEKTISKAKGQPREPQVCTLPPSRDELTKNQVSLSCAVKGFYPSDIAVEWESNGQPENNYKTTPPVLDSDGSFFLVSKLTVDKSRWQQGNVFSCSVMHEALHNHYTQKSLSLSPG heavy: QVQLVQSGAEVKKPGASVKVSCKASGYTFTSYVMHWVRQAPGQRLEWIGYINPYNAGTKYNEKFKGRATLTSDKSASTAYMELSSLRSEDTAVYYCANYYGSSLSMDYWGQGTLVTVSSASTKGPSVFPLAPSSKSTSGGTAALGCLVKDYFPEPVTVSWNSGALTSGVHTFPAVLQSSGLYSLSSVVTVPSSSLGTQTYICNVNHKPSNTKVDKKVEPKSCDKTHTCPPCPAPEFEGGPSVFLFPPKPKDTLMISRTPEVTCVVVDVSHEDPEVKFNWYVDGVEVHNAKTKPREEQYNSTYRVVSVLTVLHQDWLNGKEYKCKVSNKALPASIEKTISKAKGQPREPQVYTLPPCRDELTKNQVSLWCLVKGFYPSDIAVEWESNGQPENNYKTTPPVLDSDGSFFLYSKLTVDKSRWQQGNVFSCSVMHEALHNHYTQKSLSLSPG light: not shown
4 | 69.2 nM |  | mono-mut23-20E5_V4 (Fc fusion) IWELKKDVYVVELDWYPDAPGEMVVLTCDTPEEDGITWTLDQSSEVLGSGKTLTIQVKEFGDAGQYTCHKGGEVLSHSLLLLHKKEDGIWSTDILKDQKEPKNKTFLRCEAKNYSGRFTCWWLTTISTDLTFSVKSSRGSSDPQGVTCGAATLSAERVRGDNKEYEYSVECQEDSACPAAEESLPIEVMVDAVHKLKYENYTSSFFIRDIIKPDPPKNLQLKPLKNSRQVEVSWEYPDTWSTPHSYFSLTFSVQVQGKSKREKKDRVFTDKTSATVICRKNASISVRAQDRYYSSSWSEWASVPCSGGGGSGGGGSGGGGSGGGGSGGGGSRNLPVATPDPGMFPCLHHSQNLLRAVSNMLQKARQTLEFSPCTSEEIDHEDITKDKTSTVEACLPLELTKNESCLNSRETSFITNGSCLASRKTSFMMALCLSSIYEDLKMYQVEFKTMNAKLLMDPKRQIFLDQNMLAVIDELMQALNFNSETVPQKSSLEEPDFYKTAIKLCILLHAFRIRAVTIDRVMSYLNASGGGGSGGGGSEPKSSDKTHTCPPCPAPEFEGGPSVFLFPPKPKDTLMISRTPEVTCVVVDVSHEDPEVKFNWYVDGVEVHNAKTKPREEQYNSTYRVVSVLTVLHQDWLNGKEYKCKVSNKALPASIEKTISKAKGQPREPQVCTLPPSRDELTKNQVSLSCAVKGFYPSDIAVEWESNGQPENNYKTTPPVLDSDGSFFLVSKLTVDKSRWQQGNVFSCSVMHEALHNHYTQKSLSLSPG heavy: QVQLVQSGAEVKKPGASVKVSCKASGYTFTSYVMHWVRQAPGQRLEWIGYINPYNEGTKYNEKFKGRATLTSDKSASTAYMELSSLRSEDTAVYYCANYYGSSLSMDYWGQGTLVTVSSASTKGPSVFPLAPSSKSTSGGTAALGCLVKDYFPEPVTVSWNSGALTSGVHTFPAVLQSSGLYSLSSVVTVPSSSLGTQTYICNVNHKPSNTKVDKKVEPKSCDKTHTCPPCPAPEFEGGPSVFLFPPKPKDTLMISRTPEVTCVVVDVSHEDPEVKFNWYVDGVEVHNAKTKPREEQYNSTYRVVSVLTVLHQDWLNGKEYKCKVSNKALPASIEKTISKAKGQPREPQVYTLPPCRDELTKNQVSLWCLVKGFYPSDIAVEWESNGQPENNYKTTPPVLDSDGSFFLYSKLTVDKSRWQQGNVFSCSVMHEALHNHYTQKSLSLSPG light: not shown
